# Results reported in the supplement of paper PMC9112550, “Optimization of the antimicrobial peptide Bac7 by deep mutational scanning” (BMC Biology, 2022).
# System: Escherichia coli TOP10
# Assay: shrunken log2 fold change of peptide-encoding DNA abundance (4.5 h post-induction vs induction); higher = less antimicrobial activity (less host growth inhibition)
# Settings: time post-induction: 4.5 h; library: site-saturation at positions 5, 18, 19, 20
# 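Also: peptides expressed intracellularly from a pBAD plasmid library in pooled LB shake-flask culture, induced with 0.3% L-arabinose, DNA abundance read by NGS, three biological replicates, DESeq2 with apeglm shrinkage.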
row,Sequence,shrunken log2 fold change
1,RRIRYRPPRLPRPRPRPCKPPRP,-0.00151
2,RRIRYRPPRLPRPRPRPHARPRP,-0.163
3,RRIRIRPPRLPRPRPRPKGKPRP,-0.162
4,RRIRNRPPRLPRPRPRPCHFPRP,-0.166
5,RRIRTRPPRLPRPRPRPRWEPRP,0.0443
6,RRIRFRPPRLPRPRPRPMQRPRP,0.226
7,RRIRYRPPRLPRPRPRPDIWPRP,-0.00585
8,RRIRNRPPRLPRPRPRPEQFPRP,-0.0122
9,RRIRSRPPRLPRPRPRPKDKPRP,-0.117
10,RRIRVRPPRLPRPRPRPIRKPRP,-0.165
11,RRIRFRPPRLPRPRPRPPCLPRP,-0.0576
12,RRIRVRPPRLPRPRPRPNVTPRP,-0.554
13,RRIRHRPPRLPRPRPRPMAWPRP,0.0581
14,RRIRNRPPRLPRPRPRPPICPRP,0.0224
15,RRIRYRPPRLPRPRPRPRTGPRP,-0.0225
16,RRIRPRPPRLPRPRPRPENKPRP,-0.232
17,RRIRARPPRLPRPRPRPKHGPRP,0.246
18,RRIRRRPPRLPRPRPRPAIRPRP,-0.0892
19,RRIRCRPPRLPRPRPRPSFRPRP,-0.439
20,RRIRWRPPRLPRPRPRPKGWPRP,0.845
21,RRIRGRPPRLPRPRPRPCCCPRP,0.946
22,RRIRPRPPRLPRPRPRPGAIPRP,0.0588
23,RRIRTRPPRLPRPRPRPLVGPRP,0.131
24,RRIRQRPPRLPRPRPRPVFGPRP,0.13
25,RRIRRRPPRLPRPRPRPYVDPRP,-0.102

row,Sequence,shrunken log2 fold change
1,RRIRKRPPRLPRPRPRPIHNPRP,-0.0348
2,RRIRPRPPRLPRPRPRPDTDPRP,-0.158
3,RRIRWRPPRLPRPRPRPGIFPRP,0.0995
4,RRIRERPPRLPRPRPRPWIEPRP,-0.206
5,RRIRHRPPRLPRPRPRPYESPRP,-0.0531
6,RRIRNRPPRLPRPRPRPKATPRP,-0.0881
7,RRIRYRPPRLPRPRPRPKCMPRP,-0.841
8,RRIRYRPPRLPRPRPRPKSTPRP,-0.634
9,RRIRERPPRLPRPRPRPTDFPRP,-0.13
10,RRIRGRPPRLPRPRPRPTVCPRP,0.798
11,RRIRQRPPRLPRPRPRPRTIPRP,0.122
12,RRIRLRPPRLPRPRPRPTCIPRP,-0.123
13,RRIRDRPPRLPRPRPRPINSPRP,-0.292
14,RRIRIRPPRLPRPRPRPCGDPRP,-0.0271
15,RRIRARPPRLPRPRPRPPCPPRP,0.489
16,RRIRWRPPRLPRPRPRPAMCPRP,0.0884
17,RRIRDRPPRLPRPRPRPNCTPRP,0.476
18,RRIRLRPPRLPRPRPRPRTAPRP,0.482
19,RRIRFRPPRLPRPRPRPHNSPRP,-0.194
20,RRIRDRPPRLPRPRPRPVMEPRP,0.532
21,RRIRDRPPRLPRPRPRPSYAPRP,-0.0918
22,RRIRDRPPRLPRPRPRPGFKPRP,0.0624
23,RRIRARPPRLPRPRPRPTCGPRP,0.512
24,RRIRYRPPRLPRPRPRPYRHPRP,-1.4
25,RRIRIRPPRLPRPRPRPMRNPRP,0.167

row,Sequence,shrunken log2 fold change
1,RRIRFRPPRLPRPRPRPASKPRP,0.0916
2,RRIRTRPPRLPRPRPRPTNWPRP,0.155
3,RRIRERPPRLPRPRPRPGDMPRP,-0.116
4,RRIRYRPPRLPRPRPRPGTSPRP,-0.0454
5,RRIRFRPPRLPRPRPRPAEIPRP,-0.228
6,RRIRMRPPRLPRPRPRPMFEPRP,0.155
7,RRIRWRPPRLPRPRPRPNPEPRP,-0.0123
8,RRIRNRPPRLPRPRPRPLNWPRP,-0.269
9,RRIRLRPPRLPRPRPRPSHEPRP,0.031
10,RRIRNRPPRLPRPRPRPIMGPRP,-0.0169
11,RRIRHRPPRLPRPRPRPHADPRP,-0.208
12,RRIRARPPRLPRPRPRPNFMPRP,0.186
13,RRIRMRPPRLPRPRPRPIGKPRP,0.208
14,RRIRHRPPRLPRPRPRPHDAPRP,-0.357
15,RRIRERPPRLPRPRPRPCPQPRP,-0.232
16,RRIRPRPPRLPRPRPRPMSRPRP,-0.0311
17,RRIRRRPPRLPRPRPRPQCAPRP,0.647
18,RRIRFRPPRLPRPRPRPGSTPRP,-0.183
19,RRIRWRPPRLPRPRPRPCAPPRP,-0.0663
20,RRIRQRPPRLPRPRPRPFKRPRP,0.0391
21,RRIRQRPPRLPRPRPRPPFYPRP,-0.0349
22,RRIRPRPPRLPRPRPRPEVGPRP,0.353
23,RRIRCRPPRLPRPRPRPSSVPRP,-0.548
24,RRIRTRPPRLPRPRPRPEKTPRP,0.051
25,RRIRARPPRLPRPRPRPSCPPRP,0.131

row,Sequence,shrunken log2 fold change
1,RRIRSRPPRLPRPRPRPQRCPRP,-0.0342
2,RRIRQRPPRLPRPRPRPFYMPRP,-1.52
3,RRIRCRPPRLPRPRPRPAWLPRP,0.303
4,RRIRWRPPRLPRPRPRPQRQPRP,0.123
5,RRIRMRPPRLPRPRPRPAKRPRP,1.21
6,RRIRVRPPRLPRPRPRPESHPRP,-0.138
7,RRIRWRPPRLPRPRPRPWPMPRP,-0.0421
8,RRIRARPPRLPRPRPRPMSCPRP,-0.114
9,RRIRHRPPRLPRPRPRPYLYPRP,-0.482
10,RRIRNRPPRLPRPRPRPVVMPRP,0.00659
11,RRIRERPPRLPRPRPRPKDTPRP,-0.115
12,RRIRVRPPRLPRPRPRPHYYPRP,0.0781
13,RRIRWRPPRLPRPRPRPVTHPRP,-0.0273
14,RRIRSRPPRLPRPRPRPSASPRP,0.0953
15,RRIRYRPPRLPRPRPRPPGSPRP,0.0125
16,RRIRYRPPRLPRPRPRPVNAPRP,-0.361
17,RRIRFRPPRLPRPRPRPIIFPRP,-0.621
18,RRIRPRPPRLPRPRPRPAGTPRP,-0.07
19,RRIRLRPPRLPRPRPRPEDDPRP,0.0572
20,RRIRSRPPRLPRPRPRPRWTPRP,0.0635
21,RRIRYRPPRLPRPRPRPILRPRP,-0.172
22,RRIRMRPPRLPRPRPRPFKWPRP,-0.0704
23,RRIRHRPPRLPRPRPRPSPNPRP,-0.302
24,RRIRIRPPRLPRPRPRPPTIPRP,-0.904
25,RRIRTRPPRLPRPRPRPRKSPRP,-0.0508

row,Sequence,shrunken log2 fold change
1,RRIRNRPPRLPRPRPRPNCVPRP,0.393
2,RRIRKRPPRLPRPRPRPQNWPRP,0.508
3,RRIRIRPPRLPRPRPRPHDFPRP,0.0334
4,RRIRKRPPRLPRPRPRPWCNPRP,-0.204
5,RRIRHRPPRLPRPRPRPWMMPRP,-0.463
6,RRIRWRPPRLPRPRPRPKNHPRP,-0.248
7,RRIRMRPPRLPRPRPRPQGEPRP,-0.0117
8,RRIRERPPRLPRPRPRPPMMPRP,-0.0743
9,RRIRSRPPRLPRPRPRPRAGPRP,1.46
10,RRIRNRPPRLPRPRPRPHAPPRP,0.0879
11,RRIRCRPPRLPRPRPRPQWCPRP,-0.158
12,RRIRRRPPRLPRPRPRPSSFPRP,-0.0626
13,RRIRNRPPRLPRPRPRPVWPPRP,0.199
14,RRIRWRPPRLPRPRPRPNVYPRP,-0.234
15,RRIRCRPPRLPRPRPRPEMTPRP,0.517
16,RRIRDRPPRLPRPRPRPGYKPRP,-0.121
17,RRIRQRPPRLPRPRPRPVRLPRP,-0.0825
18,RRIRPRPPRLPRPRPRPYGRPRP,-0.213
19,RRIRYRPPRLPRPRPRPCMCPRP,-0.516
20,RRIRARPPRLPRPRPRPWMPPRP,-0.216
21,RRIRFRPPRLPRPRPRPYWNPRP,-0.388
22,RRIRMRPPRLPRPRPRPQIRPRP,-0.0442
23,RRIRKRPPRLPRPRPRPLMDPRP,0.16
24,RRIRPRPPRLPRPRPRPSLCPRP,-0.0173
25,RRIRQRPPRLPRPRPRPDNCPRP,0.0333
